Two substances from patent publication US12366576B2, “Compositions, assays, and methods for direct modulation of fatty acid metabolism” (Dana-Farber Cancer Institute, Inc., priority 2016, dated 2025) can be followed below.

Bridge positions count the residues as written; N and C are the ends. Square brackets hold non-standard residues; d marks the D form. Ends that are not written are not given here. * marks the point of attachment. Biotin = O=C1N[C@H]2[C@H](CS[C@H]2CCCCC(=O)*)N1; S5 = C=CCCC[C@](C)(N)C(=O)O

Assay [1] addresses T1, VLCAD (Homo sapiens, UniProt P49748).
T1 construct: 10x His (N); made in house; host or cells: E. coli BL21(DE3), pET19b
T1 sequence (P49748 40-655): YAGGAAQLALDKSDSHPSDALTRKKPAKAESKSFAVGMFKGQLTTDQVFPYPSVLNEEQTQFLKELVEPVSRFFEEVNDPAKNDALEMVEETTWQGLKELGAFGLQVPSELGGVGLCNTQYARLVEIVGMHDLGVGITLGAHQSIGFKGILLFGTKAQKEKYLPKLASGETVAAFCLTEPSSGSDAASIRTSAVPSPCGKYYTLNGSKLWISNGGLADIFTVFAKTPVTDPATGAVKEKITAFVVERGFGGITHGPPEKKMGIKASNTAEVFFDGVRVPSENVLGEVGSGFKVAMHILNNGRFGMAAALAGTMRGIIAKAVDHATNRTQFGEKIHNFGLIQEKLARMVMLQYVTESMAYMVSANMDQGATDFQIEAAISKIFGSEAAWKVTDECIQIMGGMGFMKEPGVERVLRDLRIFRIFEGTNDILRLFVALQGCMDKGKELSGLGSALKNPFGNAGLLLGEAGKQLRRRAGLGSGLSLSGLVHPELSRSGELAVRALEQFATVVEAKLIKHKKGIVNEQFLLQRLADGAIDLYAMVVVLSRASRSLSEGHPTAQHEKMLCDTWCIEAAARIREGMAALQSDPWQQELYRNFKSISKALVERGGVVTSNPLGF
Description: Biotinylated SAHB pulldown of recombinant protein. Conditions: 5 nmol SAHB with 10 pmol rVLCAD. It is filed as binding. From the text: To validate the MS result, the pulldowns were repeated and eluates run on a gel for anti-VLCAD Western blot analysis. […] All peptides faithfully recapitulated native BH3-binding propensities for endogenous MCL-1 protein (FIG. 8). The eluates were then probed for the other members of the acyl-CoA dehydrogenase family that manifest shorter fatty acid substrate specificities. MCL-1 SAHBD was able to pull down VLCAD, but not MCAD or SCAD (FIG. 9). Because the traditional MCL-1 staple location differs from that of the BIM, BID, and BAD SAHBs, it was important to confirm that the observed VLCAD binding specificity was due to BH3 sequence selectivity, not staple position. A BIM SAHB with the traditional MCL-1 staple (BIM SAHBF), and a MCL-1 stapled peptide with the traditional BIM staple (MCL-1 SAHBA), were generated. […]
Wild-type MEFs were trypsinized, washed once with cold PBS, and lysed on ice with NP-40 lysis buffer (50 mM Tris, pH 7.4, 150 mM NaCl, 0.5% (v/v) NP-40, complete protease inhibitor pellet (Roche)) using 1 ml of lysis buffer for every 10 million cells lysed. Cellular debris was pelleted at 14,000 g for 10 min at 4° C., and the supernatant was quantified using the BCA Protein Assay Kit (Thermo Fisher Scientific). […]

For a further assay, the system named is endogenous MCL-1. Put plainly: Biotinylated SAHB pulldown from MEF lysates, anti-MCL-1 Western analysis. Conditions: wild-type MEF lysates, 15 nmol biotinylated SAHB. Type of assay: binding, mouse. The procedure:
An exploratory proteomics analysis was conducted to identify proteins that interact with the MCL-1 BH3 domain helix. An extensive library of MCL-1 stapled BH3 peptides (FIG. 2) was generated to both identify novel protein interactors by mass spectrometry and then deploy the stapled peptide constructs as novel probes to dissect and pharmacologically modulate the identified protein interactors and associated signaling pathways. As an example, an N-terminally biotinylated stapled peptide designed based on the sequence of MCL-1's BH3 domain (Btn-MCL-1 SAHBD), or vehicle, was incubated with wild-type mouse embryonic fibroblast (MEF) lysates, followed by high stringency streptavidin capture. To validate the proteomics workflow and ensure that Btn-MCL-1 SAHBD could, in fact, engage protein interactors in a lysate, eluates were first run on a gel for anti-MCL-1 Western analysis. […] For mass spectrometry (MS) analysis, eluates were run on a reducing/denaturing gel followed by Coomassie staining (FIG. 4) and in-gel digestion was performed before injection on the instrument.
The binding determinants for the MCL-1 BH3/VLCAD interaction were investigated by generating a series of biotinylated MCL-1 SAHBD alanine point mutants (FIG. 18A) and performing streptavidin pull-downs from MEF lysates, followed by VLCAD and MCL-1 western analysis of the resulting eluates. […] Native alanines and residues not mutated are colored white.
Wild-type MEFs were trypsinized, washed once with cold PBS, and lysed on ice with NP-40 lysis buffer (50 mM Tris, pH 7.4, 150 mM NaCl, 0.5% (v/v) NP-40, complete protease inhibitor pellet (Roche)) using 1 ml of lysis buffer for every 10 million cells lysed. Cellular debris was pelleted at 14,000 g for 10 min at 4° C., and the supernatant was quantified using the BCA Protein Assay Kit (Thermo Fisher Scientific). 2 mg of lysate per pulldown were then exposed to 50 μL of pre-equilibrated High Capacity Streptavidin Agarose beads (Thermo Fisher Scientific). […] The beads were then pelleted and washed with NP-40 lysis buffer three times before eluting the protein sample from the beads by heating at 70° C. for 10 min in SDS loading buffer. Samples were then subjected to electrophoresis and either Western analysis or Coomassie stain (SimplyBlue Safe Stain, Thermo Fisher Scientific). […] Coomassie stained gels were then processed for proteomics analysis (see below). Biotinylated SAHB pulldowns of recombinant protein were performed as above incubating 5 nmol of SAHB with 10 pmol of rVLCAD in 500 μL total volume. Densitometry analyses were performed using ImageJ software.

The target of assay [2] is T2, MCL-1ΔNΔC (Homo sapiens, UniProt Q07820).
T2 construct: The MCL-1ΔNΔC construct was grown and expressed in E. coli as previously described; made in house; host or cells: E. coli BL21(DE3)
T2 sequence (Q07820 172-320 limits assumed, stated change not applied): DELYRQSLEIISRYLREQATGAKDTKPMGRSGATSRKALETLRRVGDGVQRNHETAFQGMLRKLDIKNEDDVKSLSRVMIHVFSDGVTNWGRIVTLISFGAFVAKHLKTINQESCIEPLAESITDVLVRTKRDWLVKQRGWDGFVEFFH
Description: Biolayer interferometry. Conditions: Biotin-PEG peptide immobilized on streptavidin sensors. It is filed as binding. (In general: BLI is a label-free optical method that tracks binding on a fibre tip over time.)

Assay [3] addresses T1, VLCAD. Description: 19F NMR binding study with fluorinated SAHB. Conditions: fluorinated SAHB 25 μM, VLCAD 0-125 μM. The procedure:
(§1) To measure the direct binding interaction, ^19F NMR binding studies were conducted using fluorinated analogs of MCL-1 SAHBD. […] Both SAHBs, however, bind MCL-1ΔNΔC, as illustrated by a chemical shift of the peptide NMR peak in both cases (FIG. 15). […] To perform these experiments, N-terminal Btn-PEG analogs of the peptides were immobilized onto streptavidin probes that were then placed into protein solutions at a variety of concentrations to measure ligand-target association.
VLCAD. Mature human VLCAD lacking its cleavable leader sequence (aa 40-655) (NP_000009.1) was subcloned into the pET19b vector (Novagen) using NdeI and XhoI restriction sites. Correct insertion was confirmed by DNA sequencing. […]
(§2) To determine binding of SAHBs to VLCAD, fluorinated SAHB (25 μM) and VLCAD (0-125 μM) were mixed together in VLCAD FPLC buffer including 10% D2O to a final volume of 500 μL. […] The extent to which VLCAD bound the peptide was determined by measuring the peak width at half height (ν1/2) of the peptide ^19F signal. […] MCL-1ΔNΔC binding to SAHBs causes a change in the ^19F chemical shift of the peptide resulting in two peptide signals (instead of peak broadening), so extent of binding was quantified by measuring the peak height of “unbound” peptide relative to the bound peptide signal.

Assay [4] has as its target T1, VLCAD. Put plainly: Biolayer interferometry. It is filed as binding. The settings on record: Biotin-PEG peptide immobilized on streptavidin sensors. As to the method: as §1
VLCAD. Mature human VLCAD lacking its cleavable leader sequence (aa 40-655) (NP_000009.1) was subcloned into the pET19b vector (Novagen) using NdeI and XhoI restriction sites. Correct insertion was confirmed by DNA sequencing. The 10× His-tagged VLCAD construct was expressed in BL21(DE3) E. coli, and once cells reached an OD of 0.8 after growing at 37° C., they were induced with 0.5 mM […] (IPTG) (Gold Biotechnology I2481C) at 37° C. for 4 hours. Bacterial pellets were resuspended in lysis buffer (500 mM NaCl, 50 mM HEPES, 5% glycerol, pH 7.5, complete protease inhibitor tablet) and lysed by microfluidization (M-110L; Microfluidics). […]
BLI binding measurements were performed using an Octet Red384 System (ForteBio). […] Binding parameters were calculated using the accompanying Octet Software version 9 (ForteBio).

Assay [5] has as its target T2, MCL-1ΔNΔC. Description: 19F NMR binding study with fluorinated SAHB. The settings on record: fluorinated SAHB 25 μM, MCL-1ΔNΔC 0-45 μM. The procedure: as §1
MCL-1ΔNΔC. The MCL-1ΔNΔC construct was grown and expressed in E. coli as previously described (see, e.g., Stewart, Nat Chem Biol., 6(6):595-601 (2010)). Transformed BL21(DE3) E. coli were grown at 37° C. to an OD of 0.8, after which they were induced with 0.5 mM IPTG. […]
as §2

endogenous MCL-1, sequence (P97287 152-308 limits assumed): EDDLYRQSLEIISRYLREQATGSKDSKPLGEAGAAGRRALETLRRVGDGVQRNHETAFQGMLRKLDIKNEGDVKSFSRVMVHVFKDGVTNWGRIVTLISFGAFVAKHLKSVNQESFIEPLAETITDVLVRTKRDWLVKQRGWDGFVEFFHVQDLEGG

On to “Btn-MCL-1 SAHBD: N-terminally biotinylated stapled peptide designed based on the sequence of MCL-1's BH3 domain (Biotin-RKALETLRRVGDGV[S5]RNH[S5]TAF; staple 15-19)”, for which the “pull down of recombinant VLCAD” value in the assay with VLCAD [1] was “pulled down recombinant VLCAD”. In addition, the “pull down of endogenous MCL-1 from cellular lysates” value with endogenous MCL-1 is reported as “readily identified in the eluates”.
As for “MCL-1 SAHBB: MCL-1 SAHB containing a different staple position (RKAL[S5]TLR[S5]VGDGVQRNHETAF; staple 5-9)”, in the assay with MCL-1ΔNΔC [2], the “biolayer interferometry association with MCL-1” value is listed as “bind to MCL-1”. Also, the “19F NMR peptide peak broadening on VLCAD titration” value in the assay with VLCAD [3] is reported as “little to no peak broadening”. Besides, the “biolayer interferometry association with VLCAD” value in the assay with VLCAD [4] is “no detectable binding interaction”. In the assay with MCL-1ΔNΔC [5], the “19F NMR binding to MCL-1ΔNΔC (chemical shift of the peptide peak)” value is recorded as “binds directly”.
